{
  "source": "patent US20030194400",
  "proteins": {"B1": {"name": "Factor VIIa (protein)", "chain": "ANAFLEELRPGSLERECKEEQCSFEEAREIFKDAERTKLFWISYSDGDQCASSPCQNGGSCKDQLQSYICFCLPAFEGRNCETHKDDQLICVNENGGCEQYCSDHTGTKRSCRCHEGYSLLADGVSCTPTVEYPCGKIPILEKRNASKPQGRIVGGKVCPKGECPWQVLLLVNGAQLCGGTLINTIWVVSAAHCFDKIKNWRNLIAVLGEHDLSEHDGDEQSRRVAQVIIPSTYVPGTTNHDIALLRLHQPVVLTDHVVPLCLPERTFSERTLAFVRFSLVSGWGQLLDRGATALELMVLNVPRLMTQDCLQQSRKVGDSPNITEYMFCAGYSDGSKDSCKGDSGGPHATHYRGTWYLTGIVSWGQGCATVGHFGVYTRVSQYIEWLQKLMRSEPRPGVLLRAPFP"}},
  "key": {"[1]": {"target": "fibronectin-Tissue Factor (Fn-TF) fusion protein"}, "[2]": {"target": "T1, soluble Tissue Factor extracellular domain TF1-218", "T1 chain": "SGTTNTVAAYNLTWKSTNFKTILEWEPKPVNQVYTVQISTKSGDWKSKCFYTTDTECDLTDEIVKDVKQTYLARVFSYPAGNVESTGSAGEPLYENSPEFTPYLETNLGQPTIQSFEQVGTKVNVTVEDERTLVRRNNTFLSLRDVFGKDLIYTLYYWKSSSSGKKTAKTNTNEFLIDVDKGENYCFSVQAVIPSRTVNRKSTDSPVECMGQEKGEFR"}},
  "data": [
    {"protein": "B1", "values": [
      {"measurement": "Factor VIIa amidolytic activity (chromozym t-PA hydrolysis)", "setting": "[1]", "value": "Very little difference in amidolytic activity is discernable for Tissue Factor and Fn-TF except at high concentrations"},
      {"measurement": "Factor VIIa amidolytic activity (chromozym t-PA hydrolysis)", "setting": "[2]", "value": "Very little difference in amidolytic activity is discernable for Tissue Factor and Fn-TF except at high concentrations"}
    ]}
  ]
}
